Measured values reported in patent US20170145391.

Legend:
His-S6K1C = His-S6K1C (UniProt P23443)
4E-BP1 (Calbiochem) = 4E-BP1 (Calbiochem) (UniProt Q13541)
Chain of 4E-BP1 (Calbiochem) (Q13541 whole entry): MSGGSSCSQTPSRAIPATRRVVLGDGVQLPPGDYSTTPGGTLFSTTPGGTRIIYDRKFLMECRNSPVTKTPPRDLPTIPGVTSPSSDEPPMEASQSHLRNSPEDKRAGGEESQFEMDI

Chain of His-S6K1C (P23443 332-502): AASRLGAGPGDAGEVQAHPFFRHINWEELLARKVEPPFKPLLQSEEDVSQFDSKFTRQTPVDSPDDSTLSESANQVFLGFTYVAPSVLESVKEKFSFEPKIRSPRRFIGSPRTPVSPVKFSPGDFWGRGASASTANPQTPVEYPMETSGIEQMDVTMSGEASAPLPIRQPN

## FLAG-mTORα
His-S6K1C
  mTOR in vitro kinase assay; immunoblot with phosphospecific antibody pT389-S6K1: mTORβ can phosphorylate both S6K1 and 4E-BP1 in vitro, but to a lesser extent than mTORα
4E-BP1 (Calbiochem)
  mTOR in vitro kinase assay; immunoblot with phosphospecific antibody pS65-4E-BP1: mTORβ can phosphorylate both S6K1 and 4E-BP1 in vitro, but to a lesser extent than mTORα
